Results as given in patent publication US20220242939A1 (BIOARCTIC, published 2022).
Like-named read-outs stand apart in the source and are kept apart here. Non-standard residues stand in square brackets, D forms with d. No end group written: not given here. Ahx = NCCCCCC(=O)O

T1: G200 N-terminal neo-epitope peptide GQPLQE-Acp-C (SEQ ID NO:50) conjugated to BSA (human, not fully specified (residue 8); printed as GQPLQE-Acp-C; also: C-terminal Cys conjugated to BSA carrier)
T1 construct: also called G200-BSA peptide; G200-peptide
T1 peptide: GQPLQE[Ahx]C

T2: L198 N-terminal neo-epitope peptide LAGQPLQE-Acp-C (SEQ ID NO:54) conjugated to BSA (human, not fully specified (residue 10); printed as LAGQPLQE-Acp-C; also: C-terminal Cys conjugated to BSA carrier)
T2 construct: BSA carrier
T2 peptide: LAGQPLQE[Ahx]C

T3: L198 N-terminal neo-epitope peptide LAGQPL-Acp-C (SEQ ID NO:52) conjugated to BSA (human, not fully specified (residue 8); printed as LAGQPL-Acp-C; also: C-terminal Cys conjugated to BSA carrier)
T3 construct: BSA carrier; also called L198-BSA peptide
T3 peptide: LAGQPL[Ahx]C

T4: negative control peptide AATVGSLAGQPLQER-Acp-C (SEQ ID NO:53) conjugated to BSA (human, not fully specified (residue 17); printed as AATVGSLAGQPLQER-Acp-C; also: C-terminal Cys conjugated to BSA carrier)
T4 construct: BSA carrier; also called 192-206 BSA-conjugated peptide
T4 peptide: AATVGSLAGQPLQER[Ahx]C

T5: A199 N-terminal neo-epitope peptide AGQPLQE-Acp-C (SEQ ID NO:55) conjugated to BSA (human, not fully specified (residue 9); printed as AGQPLQE-Acp-C; also: C-terminal Cys conjugated to BSA carrier)
T5 construct: BSA carrier
T5 peptide: AGQPLQE[Ahx]C

T6: A199 N-terminal neo-epitope peptide AGQPLQ-Acp-C (SEQ ID NO:51) conjugated to BSA (human, not fully specified (residue 8); printed as AGQPLQ-Acp-C; also: C-terminal Cys conjugated to BSA carrier)
T6 construct: BSA carrier; also called A199-BSA peptide
T6 peptide: AGQPLQ[Ahx]C


Columns and labels:
[1] = biological target: T1, G200 N-terminal neo-epitope peptide …; experiment: direct ELISA; proteins coated at 0.1 uM, BSA peptides at 1 ug/ml; antibody in 3-fold dilutions from 3000 ng/ml; blank reduced OD 450 nm
Procedure: (§1) Selectivity evaluation of purified monoclonal antibodies by direct ELISA: The direct ELISA described below was used to evaluate the binding selectivity of the purified monoclonal antibodies produced in Example 14.
(§2) The screening was performed according to standard ELISA protocols. Briefly, 1 μg/ml solutions of BSA-conjugated neo-epitope peptides and negative control peptide, and 0.1 μM recombinant C-terminal ApoE fragment and full-length ApoE (Abcam, cat. no. ab50243) were prepared by dilution in PBS. 50 μl/well were added to an ELISA half-area 96 well microtiter plate, and the plate was sealed with adhesive sealer and incubated over night at 4° C. After discarding the solution, the plates were blocked with 150 μl/well of protein-free blocking solution (Pierce) for 1 h at room temperature with shake (600-900 rpm). The plates were washed four times with washing buffer containing 0.28 mM NaH₂PO₄, 2.5 mM Na₂HPO₄, 150 mM NaCl, 0.1% TWEEN®-20 and 0.0075% Kathon CG. Purified monoclonal antibodies of interest were 3-fold serially diluted with a starting dilution at 3 μg/ml (mixed 1:2 with dilution buffer (PBS with 0.1% BSA and 0.05% TWEEN®-20)). An anti-ApoE C-terminal antibody was used as a reference antibody (ApoE E-8 mouse monoclonal, Santa Cruz Biotechnology, cat. no. sc-393302). 50 μl/well were added into the ELISA plates and incubated for 2 h at room temperature with shake (600-900 rpm). The plates were washed four times as described previously. […] After another wash (as described previously), 50 μl/well of K-Blue® aqueous substrate (Neogen) were added, and the reaction was stopped after 5-15 min with 50 μl/well of 0.5 M H2504. The optical density at 450 nm was read using an ELISA reader (Tecan).

[2] = biological target: T7, recombinant full-length ApoE4 (aa 1-299; SEQ ID NO:45; Abcam cat. no. ab50243) (human, UniProt P02649 19-317); experiment: as above
T7 construct: Bought protein; also called recombinant ApoE4 full-length protein
Procedure: as §1, §2

[3] = biological target: T8, recombinant C-terminal ApoE fragment L198-HIS (ApoE-L198-H299-10xHIS) (human, UniProt P02649 216-317); experiment: direct ELISA, L198-HIS coated at 0.1 µM
T8 construct: also called L198-HIS fragment
Procedure: as §1, §2

[4] = biological target: T9, full-length ApoE in human brain extract from Alzheimer's disease patients (human, UniProt P02649 19-317); experiment: Western blot of AD brain RIPA 2% SDS extract; monoclonal antibody at 2 ug/ml as primary antibody
T9 construct: mature; Endogenous protein on Western blot or in solution (IP); also called ApoE full-length protein

[5] = biological target: T2, L198 N-terminal neo-epitope peptide …; experiment: direct ELISA after limiting dilution
[6] = biological target: T3, L198 N-terminal neo-epitope peptide …; experiment: direct ELISA, L198-BSA peptide coated at 1 µg/ml
Procedure: as §1, §2

[7] = biological target: T9, full-length ApoE in human brain extract …; experiment: Western blot of AD brain RIPA 2% SDS extract; anti-A199 antibody at 2 ug/ml as primary antibody
Procedure: RIPA 2% SDS brain extract containing approximately 60 μg total protein was mixed with 2×Laemmli sample buffer, boiled for 5 min at 95° C. and loaded onto SDS-PAGE gels (Bolt™ 12% Bis-Tris Plus 10 well, Thermo Fisher, cat. no. NW00120BOX). Gels were run for 30-40 min at 180 V, after which proteins were transferred from the gels onto nitrocellulose membranes using the Trans-Blot® Turbo™ system (Bio-Rad). […] Membranes were washed and incubated for 1 h at room temperature with the detection antibody anti-mouse-800CW (LI-COR, cat. no. 925-32210) diluted 1:25000 in Intercept® PBS Blocking Buffer (LI-COR) with 0.1% TWEEN®-20. Membranes were washed and images acquired using Odyssey® FC (LI-COR).

[8] = biological target: T10, recombinant C-terminal ApoE fragment A199-HIS (ApoE-A199-H299-10xHIS) (human, UniProt P02649 217-317); experiment: direct ELISA, A199-HIS coated at 0.1 µM
T10 construct: also called A199-HIS fragment
Procedure: (§3) Selectivity evaluation of purified monoclonal antibodies by direct ELISA: The direct ELISA described below was used to evaluate the binding selectivity of the purified monoclonal antibodies produced in Example 17.
as §2, with “H₂SO₄.” for “H2504.”

[9] = biological target: T4, negative control peptide …; experiment: direct ELISA; proteins coated at 0.1 uM, BSA peptides at 1 ug/ml; antibody in 3-fold dilutions from 3000 ng/ml; blank reduced OD 450 nm
Procedure: as §3
as §2, with “H₂SO₄.” for “H2504.”

[10] = biological target: T3, L198 N-terminal neo-epitope peptide …; experiment: as above
Procedure: as §3
as §2, with “H₂SO₄.” for “H2504.”

[11] = biological target: T1, G200 N-terminal neo-epitope peptide …; experiment: as above
Procedure: as §3
as §2, with “H₂SO₄.” for “H2504.”

[12] = biological target: T7, recombinant full-length ApoE4 (aa …); experiment: as above; remark: listed apart in the source
Procedure: as §3
as §2, with “H₂SO₄.” for “H2504.”

[13] = biological target: T5, A199 N-terminal neo-epitope peptide …; experiment: direct ELISA after limiting dilution
[14] = biological target: T6, A199 N-terminal neo-epitope peptide …; experiment: direct ELISA, A199-BSA peptide coated at 1 µg/ml
Procedure: as §3
as §2, with “H₂SO₄.” for “H2504.”

T9 sequence (P02649 19-317): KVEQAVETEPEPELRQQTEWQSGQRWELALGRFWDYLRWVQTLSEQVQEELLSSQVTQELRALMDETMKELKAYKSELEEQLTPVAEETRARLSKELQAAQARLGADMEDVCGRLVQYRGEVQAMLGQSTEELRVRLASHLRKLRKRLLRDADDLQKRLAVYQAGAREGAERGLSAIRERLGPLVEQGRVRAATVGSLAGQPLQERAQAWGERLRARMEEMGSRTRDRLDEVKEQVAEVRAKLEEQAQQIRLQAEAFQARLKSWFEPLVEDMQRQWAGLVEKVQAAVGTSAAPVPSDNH
T7 sequence (P02649 19-317 C130R limits assumed): as the sequence (P02649 19-317) above, with C112R counted along it
T10 sequence (P02649 other isoform, or with tags, fused parts or gaps limits assumed): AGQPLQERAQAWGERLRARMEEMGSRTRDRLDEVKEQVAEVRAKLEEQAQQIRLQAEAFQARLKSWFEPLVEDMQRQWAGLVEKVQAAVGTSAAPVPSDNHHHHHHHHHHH
T8 sequence (P02649 other isoform, or with tags, fused parts or gaps limits assumed): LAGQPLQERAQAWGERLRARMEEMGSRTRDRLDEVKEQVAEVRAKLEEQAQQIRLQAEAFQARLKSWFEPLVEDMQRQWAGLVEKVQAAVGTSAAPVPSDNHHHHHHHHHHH

| binding result [1] | binding result [2] | EC50 [3] [µg/mL] | binding result [4] | binding result [5] | EC50 [6] [µg/mL] | binding result [7] | EC50 [8] [µg/mL] | binding result [9] | binding result [10] | binding result [11] | binding result [12] | binding result [13] | EC50 [14] [µg/mL] | Binder |
| --- | --- | --- | --- | --- | --- | --- | --- | --- | --- | --- | --- | --- | --- | --- |
| no binding (tested: 3000 ng/ml) | no binding (tested: 3000 ng/ml) | 0.015 | no binding (tested: 2 ug/ml (text)) | binds | 0.0247 | – | – | – | – | – | – | – | – | 15F8, monoclonal anti-L198 antibody (antibody, IgG2c, V domains shown) VH: EVKLEESGGGLVHPGGSMKLSCVGSGFTFSNYWMNWVRQSPEKGLEWVAQIKLRSDNYATHYAESVKGKFTISRDDAKSSVYLQMDNLRAEDTGIYYCSHHYLDSGGYFDVWGTGTSVTVSS VL: DIVMTQSQKFMSTSVGDRVSVTCKASQNVGINVAWYQDKPGQSPKGLILSASYRYSGVPDRFTGSGSGTDFTLTISNVQSEDLAEYFCQQYNSYPYTFGGGTKLEIK |
| – | – | – | – | – | – | no binding (tested: 2 ug/ml (text)) | 0.0202 | no binding (tested: 3000 ng/ml) | no binding (tested: 3000 ng/ml) | no binding (tested: 3000 ng/ml) | no binding (tested: 3000 ng/ml) | binds | 0.0051 | 36A12, monoclonal anti-A199 antibody (antibody, IgG1, V domains shown) VH: EVKLEESGGGLVQPGGSMKLSCVASGFTFSNYWMNWVRQSPEKGLEWIGEIKLKSNNYGTHYAESVKGRFTISRDDSKSSVYLQMNNLRAEDTGIYYCTRDTEVVAGAHWGQGTLVTVSA VL: NIMMTQSPSSLAVSAGEKVTMSCKSSQSVLYNSNQKNYLAWYQQKPGQSPKLLIYWASTRDSGVPDRFTGSGSGTDFTLTISSVRAEDLAVYFCQQYLSSLTFGAGTKLELK |
| – | – | – | – | – | – | no binding (tested: 2 ug/ml (text)) | 0.0397 | no binding (tested: 3000 ng/ml) | no binding (tested: 3000 ng/ml) | no binding (tested: 3000 ng/ml) | no binding (tested: 3000 ng/ml) | binds | 0.0046 | 38G9, monoclonal anti-A199 antibody (antibody, IgG1, V domains shown) VH: EVKLEESGGGLVQPGGSMKLSCVASGFTFSNYWMNWVRQSPEKGLEWVGEIKLKSNNYGTHYAESVKGRFTISRDDSKSSVYLQMNNLRAEDTGIYYCTRDTEVVAGAHWGQGTLVTVSA VL: NIMMTQSPSSLAVSAGEKVTMSCKSSQSVLYSSNQKNYLAWYQQKPGQSPKLLIYWASTRESGVPDRFTGSGSGTDFTLTISSVQAEDLAVYFCQQYLSSLTFGAGTKLELK |
